Experimental findings from the Human Domainome abundance scans (Beltran et al. 2025) are described below.

± gives the uncertainty stated by the source.

This series can be described thus: abundance fitness (aPCA) (normalised: wild type 0, dead -1); higher = more abundant; growth selection in yeast, the domain comes from the species named. The settings on record: Homo sapiens.
“Transcriptional activator Myb W185G, P10242” displayed an abundance fitness of -0.702 ± 0.046.
With “Transcriptional activator Myb W185K, P10242”, the abundance fitness is -0.553 ± 0.11.
On to “Transcriptional activator Myb W185L, P10242”, for which the abundance fitness is -0.509 ± 0.067.
“Transcriptional activator Myb W185M, P10242” yielded an abundance fitness of -0.327 ± 0.13.
As for “Transcriptional activator Myb W185N, P10242”, the figure is -0.55 ± 0.14.
In the case of “Transcriptional activator Myb W185P, P10242”, the abundance fitness was -0.688 ± 0.15.
With “Transcriptional activator Myb W185Q, P10242” the figure was -1.05 ± 0.25; with “Transcriptional activator Myb W185R, P10242”, -0.686 ± 0.066.
With “Transcriptional activator Myb W185S, P10242” the figure was -0.648 ± 0.083; with “Transcriptional activator Myb W185T, P10242”, -0.705 ± 0.12; with “Transcriptional activator Myb W185V, P10242”, -0.246 ± 0.053.
“Transcriptional activator Myb W185Y, P10242”: the abundance fitness was -0.034 ± 0.14.
As for “Transcriptional activator Myb Y156A, P10242”, the abundance fitness was -0.056 ± 0.049.
For “Transcriptional activator Myb Y156C, P10242”, the abundance fitness is -0.069 ± 0.076.
For the substance “Transcriptional activator Myb Y156D, P10242”, the abundance fitness was -0.049 ± 0.086.
As to “Transcriptional activator Myb Y156E, P10242”, the abundance fitness is -0.124 ± 0.055.
With “Transcriptional activator Myb Y156F, P10242” the figure was 0.091 ± 0.11; with “Transcriptional activator Myb Y156G, P10242”, -0.237 ± 0.034.
For the substance “Transcriptional activator Myb Y156H, P10242”, the abundance fitness was -0.021 ± 0.11.
As to “Transcriptional activator Myb Y156I, P10242”, the abundance fitness was -0.061 ± 0.13.
“Transcriptional activator Myb Y156K, P10242” yielded an abundance fitness of -0.13 ± 0.062.
For “Transcriptional activator Myb Y156L, P10242”, the abundance fitness came to 0.004 ± 0.047.
“Transcriptional activator Myb Y156N, P10242” yielded an abundance fitness of -0.33 ± 0.12.
With “Transcriptional activator Myb Y156P, P10242” the figure was -0.859 ± 0.1; with “Transcriptional activator Myb Y156Q, P10242”, -0.014 ± 0.073; with “Transcriptional activator Myb Y156R, P10242”, -0.102 ± 0.037.
In the case of “Transcriptional activator Myb Y156S, P10242”, the abundance fitness is -0.036 ± 0.047.
As to “Transcriptional activator Myb Y156T, P10242”, the abundance fitness is -0.09 ± 0.072.
As for “Transcriptional activator Myb Y156V, P10242”, the figure is -0.056 ± 0.046; as for “Transcriptional activator Myb Y156W, P10242”, -0.074 ± 0.046; as for “Transcriptional activator Myb Y198A, P10242”, 0.01 ± 0.086.
For the substance “Transcriptional activator Myb Y198C, P10242”, the abundance fitness is -0.16 ± 0.14.
As for “Transcriptional activator Myb Y198D, P10242”, the figure is -0.035 ± 0.12; as for “Transcriptional activator Myb Y198E, P10242”, 0.057 ± 0.099; as for “Transcriptional activator Myb Y198F, P10242”, -0.033 ± 0.17.
For the substance “Transcriptional activator Myb Y198G, P10242”, the abundance fitness is -0.041 ± 0.065.
“Transcriptional activator Myb Y198H, P10242” displayed an abundance fitness of -0.145 ± 0.2.
“Transcriptional activator Myb Y198I, P10242” yielded an abundance fitness of 0.093 ± 0.12.
With “Transcriptional activator Myb Y198K, P10242” the figure was -0.011 ± 0.13; with “Transcriptional activator Myb Y198L, P10242”, 0.027 ± 0.089.
The substance “Transcriptional activator Myb Y198M, P10242” registered an abundance fitness of -0.01 ± 0.1.
As for “Transcriptional activator Myb Y198N, P10242”, the abundance fitness is 0.067 ± 0.11.
As to “Transcriptional activator Myb Y198P, P10242”, the abundance fitness was 0.016 ± 0.14.
“Transcriptional activator Myb Y198Q, P10242” gave an abundance fitness of -0.02 ± 0.1.
Turning to “Transcriptional activator Myb Y198R, P10242”, the abundance fitness came to 0.054 ± 0.063.
As for “Transcriptional activator Myb Y198S, P10242”, the abundance fitness is 0.025 ± 0.065.
The substance “Transcriptional activator Myb Y198T, P10242” gave an abundance fitness of -0.071 ± 0.1.
Take “Transcriptional activator Myb Y198V, P10242”: the abundance fitness is -0.042 ± 0.069.
As for “Transcriptional activator Myb Y198W, P10242”, the figure is -0.133 ± 0.095.
